# Results: paper PMC5740061 (Nature Communications, 2017)
# B1: SDGF-TB1G1 (TB1G1 displayed on 293F cells) [designed binder] / Biotinylated His-Avi-TEAD1(194–411) [modified: biotin (BirA-500 kit); biotin (BirA-500 kit)] [not stated] (parent complex)
# chain 1: PDEYIERAKECCKKGDIQCCLRYFEESGDPNVMLICLFCP
# chain 2: RSIGTTKLRLVEFSAFLEQQRDPDSYNKHLFVHIGHANHSYSDPLLESVDIRQIYDKFPEKKGGLKELFGKGPQNAFFLVKFWADLNCNIQDDAGAFYGVTSQYESSENMTVTCSTKVCSFGKQVVEKVETEYARFENGRFVYRINRSPMCEYMINFIHKLKHLPEKYMMNSVLENFTILLVVTNRDTQETLLCMACVFEVSNSEHGAQHHIYRLVKD
# Variants of: B1
# Assay: mammalian (293F) surface display of a site-saturation mutagenesis library (every non-Cys single substitution), FACS sorting on biotinylated TEAD1 YBD, two sorting rounds, Illumina sequencing with perfect-match mapping; 20 nM biotinylated TEAD, monovalent 2-step stain (TEAD alone 30 min at 4 °C, dilute, pellet, then 20 nM streptavidin-Alexa Fluor 647), flow sorting on a BD Aria
row,Variant,enrichment
1,chain 1 PDEYIIRAKECCKKGDIQCCLRYFEESGDPNVMLICLFCP [chain 1 E6I],"-1.56 log2 (fold change of variant abundance after two TEAD sorts vs input, normalised to TB1G1)"
2,chain 1 PDEYIVRAKECCKKGDIQCCLRYFEESGDPNVMLICLFCP [chain 1 E6V],"-1.55 log2 (fold change of variant abundance after two TEAD sorts vs input, normalised to TB1G1)"
3,chain 1 PDEYIARAKECCKKGDIQCCLRYFEESGDPNVMLICLFCP [chain 1 E6A],"-0.676 log2 (fold change of variant abundance after two TEAD sorts vs input, normalised to TB1G1)"
4,chain 1 PDEYIMRAKECCKKGDIQCCLRYFEESGDPNVMLICLFCP [chain 1 E6M],"-2.04 log2 (fold change of variant abundance after two TEAD sorts vs input, normalised to TB1G1)"
5,chain 1 PDEYITRAKECCKKGDIQCCLRYFEESGDPNVMLICLFCP [chain 1 E6T],"-0.921 log2 (fold change of variant abundance after two TEAD sorts vs input, normalised to TB1G1)"
6,chain 1 PDEYISRAKECCKKGDIQCCLRYFEESGDPNVMLICLFCP [chain 1 E6S],"-1.09 log2 (fold change of variant abundance after two TEAD sorts vs input, normalised to TB1G1)"
7,chain 1 PDEYILRAKECCKKGDIQCCLRYFEESGDPNVMLICLFCP [chain 1 E6L],"-0.404 log2 (fold change of variant abundance after two TEAD sorts vs input, normalised to TB1G1)"
8,chain 1 PDEYIYRAKECCKKGDIQCCLRYFEESGDPNVMLICLFCP [chain 1 E6Y],"-2.33 log2 (fold change of variant abundance after two TEAD sorts vs input, normalised to TB1G1)"
9,chain 1 PYEYIERAKECCKKGDIQCCLRYFEESGDPNVMLICLFCP [chain 1 D2Y],"-1.63 log2 (fold change of variant abundance after two TEAD sorts vs input, normalised to TB1G1)"
10,chain 1 PSEYIERAKECCKKGDIQCCLRYFEESGDPNVMLICLFCP [chain 1 D2S],"-1.01 log2 (fold change of variant abundance after two TEAD sorts vs input, normalised to TB1G1)"
11,chain 1 PLEYIERAKECCKKGDIQCCLRYFEESGDPNVMLICLFCP [chain 1 D2L],"-3.53 log2 (fold change of variant abundance after two TEAD sorts vs input, normalised to TB1G1)"
12,chain 1 PEEYIERAKECCKKGDIQCCLRYFEESGDPNVMLICLFCP [chain 1 D2E],"1.16 log2 (fold change of variant abundance after two TEAD sorts vs input, normalised to TB1G1)"
13,chain 1 PVEYIERAKECCKKGDIQCCLRYFEESGDPNVMLICLFCP [chain 1 D2V],"-2.34 log2 (fold change of variant abundance after two TEAD sorts vs input, normalised to TB1G1)"
14,chain 1 PPEYIERAKECCKKGDIQCCLRYFEESGDPNVMLICLFCP [chain 1 D2P],"-2.11 log2 (fold change of variant abundance after two TEAD sorts vs input, normalised to TB1G1)"
15,chain 1 PQEYIERAKECCKKGDIQCCLRYFEESGDPNVMLICLFCP [chain 1 D2Q],"-0.201 log2 (fold change of variant abundance after two TEAD sorts vs input, normalised to TB1G1)"
16,chain 1 PREYIERAKECCKKGDIQCCLRYFEESGDPNVMLICLFCP [chain 1 D2R],"-7.12 log2 (fold change of variant abundance after two TEAD sorts vs input, normalised to TB1G1)"
17,chain 1 PDEYIERANECCKKGDIQCCLRYFEESGDPNVMLICLFCP [chain 1 K9N],"3.31 log2 (fold change of variant abundance after two TEAD sorts vs input, normalised to TB1G1)"
18,chain 1 PDEYIERAFECCKKGDIQCCLRYFEESGDPNVMLICLFCP [chain 1 K9F],"-3.52 log2 (fold change of variant abundance after two TEAD sorts vs input, normalised to TB1G1)"
19,chain 1 PDEYIERATECCKKGDIQCCLRYFEESGDPNVMLICLFCP [chain 1 K9T],"2.68 log2 (fold change of variant abundance after two TEAD sorts vs input, normalised to TB1G1)"

row,Variant,enrichment
1,chain 1 PDEYIERAVECCKKGDIQCCLRYFEESGDPNVMLICLFCP [chain 1 K9V],"-8.88 log2 (fold change of variant abundance after two TEAD sorts vs input, normalised to TB1G1)"
2,chain 1 PDEYIERAQECCKKGDIQCCLRYFEESGDPNVMLICLFCP [chain 1 K9Q],"1.1 log2 (fold change of variant abundance after two TEAD sorts vs input, normalised to TB1G1)"
3,chain 1 PDEYIERAEECCKKGDIQCCLRYFEESGDPNVMLICLFCP [chain 1 K9E],"3.95 log2 (fold change of variant abundance after two TEAD sorts vs input, normalised to TB1G1)"
4,chain 1 PDEYIERASECCKKGDIQCCLRYFEESGDPNVMLICLFCP [chain 1 K9S],"-0.907 log2 (fold change of variant abundance after two TEAD sorts vs input, normalised to TB1G1)"
5,chain 1 PDEYIERARECCKKGDIQCCLRYFEESGDPNVMLICLFCP [chain 1 K9R],"-1.3 log2 (fold change of variant abundance after two TEAD sorts vs input, normalised to TB1G1)"
6,chain 1 PDEYIERAWECCKKGDIQCCLRYFEESGDPNVMLICLFCP [chain 1 K9W],"-4.41 log2 (fold change of variant abundance after two TEAD sorts vs input, normalised to TB1G1)"
7,chain 1 PDEYIERAIECCKKGDIQCCLRYFEESGDPNVMLICLFCP [chain 1 K9I],"-3.03 log2 (fold change of variant abundance after two TEAD sorts vs input, normalised to TB1G1)"
8,chain 1 PDEYIERRKECCKKGDIQCCLRYFEESGDPNVMLICLFCP [chain 1 A8R],"-5.84 log2 (fold change of variant abundance after two TEAD sorts vs input, normalised to TB1G1)"
9,chain 1 PDEYIERSKECCKKGDIQCCLRYFEESGDPNVMLICLFCP [chain 1 A8S],"-2.79 log2 (fold change of variant abundance after two TEAD sorts vs input, normalised to TB1G1)"
10,chain 1 PDEYIERGKECCKKGDIQCCLRYFEESGDPNVMLICLFCP [chain 1 A8G],"-4.11 log2 (fold change of variant abundance after two TEAD sorts vs input, normalised to TB1G1)"
11,chain 1 PDEYIERYKECCKKGDIQCCLRYFEESGDPNVMLICLFCP [chain 1 A8Y],"-3.35 log2 (fold change of variant abundance after two TEAD sorts vs input, normalised to TB1G1)"
12,chain 1 PDEYIERKKECCKKGDIQCCLRYFEESGDPNVMLICLFCP [chain 1 A8K],"-4.73 log2 (fold change of variant abundance after two TEAD sorts vs input, normalised to TB1G1)"
13,chain 1 PDEYIERQKECCKKGDIQCCLRYFEESGDPNVMLICLFCP [chain 1 A8Q],"-6 log2 (fold change of variant abundance after two TEAD sorts vs input, normalised to TB1G1)"
14,chain 1 PDRYIERAKECCKKGDIQCCLRYFEESGDPNVMLICLFCP [chain 1 E3R],"-1.81 log2 (fold change of variant abundance after two TEAD sorts vs input, normalised to TB1G1)"
15,chain 1 PDGYIERAKECCKKGDIQCCLRYFEESGDPNVMLICLFCP [chain 1 E3G],"-0.623 log2 (fold change of variant abundance after two TEAD sorts vs input, normalised to TB1G1)"
16,chain 1 PDVYIERAKECCKKGDIQCCLRYFEESGDPNVMLICLFCP [chain 1 E3V],"-1.39 log2 (fold change of variant abundance after two TEAD sorts vs input, normalised to TB1G1)"
17,chain 1 PDHYIERAKECCKKGDIQCCLRYFEESGDPNVMLICLFCP [chain 1 E3H],"-0.307 log2 (fold change of variant abundance after two TEAD sorts vs input, normalised to TB1G1)"
18,chain 1 PDAYIERAKECCKKGDIQCCLRYFEESGDPNVMLICLFCP [chain 1 E3A],"-2.02 log2 (fold change of variant abundance after two TEAD sorts vs input, normalised to TB1G1)"
19,chain 1 PDDYIERAKECCKKGDIQCCLRYFEESGDPNVMLICLFCP [chain 1 E3D],"0.801 log2 (fold change of variant abundance after two TEAD sorts vs input, normalised to TB1G1)"

# Variants of: B1
# Assay: not given
row,Variant,ratio to parent
1,"chain 1 PDEYIERAKESSKKGDIQSSLRYFEESGDPNVMLISLFSP [chain 1 C11S, chain 1 C12S, chain 1 C19S, chain 1 C20S, chain 1 C36S, chain 1 C39S]",~0.01
